# Results reported in PMC3799444.
# Positions count from the first letter of the chain named. Names and notes keep the numbering of the source.
# T1: Polλ Q243R (Homo sapiens, UniProt Q9UGP5 1-575, Q243R)
# T1 sequence: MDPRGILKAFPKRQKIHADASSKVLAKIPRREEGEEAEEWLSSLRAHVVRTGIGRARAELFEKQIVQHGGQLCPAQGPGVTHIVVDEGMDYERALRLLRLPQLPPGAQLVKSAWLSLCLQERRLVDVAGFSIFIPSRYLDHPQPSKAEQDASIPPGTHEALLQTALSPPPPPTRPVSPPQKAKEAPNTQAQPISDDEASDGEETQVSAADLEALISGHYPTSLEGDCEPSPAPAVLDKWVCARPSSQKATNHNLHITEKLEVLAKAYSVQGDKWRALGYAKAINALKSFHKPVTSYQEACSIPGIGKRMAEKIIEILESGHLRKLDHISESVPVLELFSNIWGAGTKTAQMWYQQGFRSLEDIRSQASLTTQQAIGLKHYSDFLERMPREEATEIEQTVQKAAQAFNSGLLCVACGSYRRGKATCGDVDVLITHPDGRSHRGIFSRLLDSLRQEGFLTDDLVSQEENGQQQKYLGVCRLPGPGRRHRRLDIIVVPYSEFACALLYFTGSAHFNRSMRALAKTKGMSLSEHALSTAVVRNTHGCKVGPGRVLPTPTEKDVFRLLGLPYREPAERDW
# T2: Polλ W239Y (Homo sapiens, UniProt Q9UGP5 1-575, W239Y)
# T2 sequence: T1 sequence with W239Y, R243Q
# B1: 1 nt gap Sp1C/T13C/DG1-P (dsDNA)
# DNA 1: GATCACAGTGAGTAC
# DNA 2: AGAAGTGTATCTCGTACTCACTGTGATC
# DNA 3: AGATACACTTCT
# modifications: 5'-phosphate on DG1-P
# B2: 5 nt gap FP-P/FP-T5/FP-D (dsDNA)
# DNA 1: GGCCACGCAATGTTGACGTTTTTCGACAAGACCTCAGTAT
# DNA 2: GGCAGCTTGGATCTTGTCGAAAAACGTCAACATTCGCCTAGGCTTCGGCAGCATATACTGAGGTCTTGTCGAAAAACGTCAACATTGCGTGGCC
# DNA 3: GCCGAAGCCTAGGCGAATGTTGACGTTTTTCGACAAGATCCAAGCTGCC
# modifications: 5'-phosphate on FT-D
# Tests used:
# Experiment in all cases: EMSA
# Polµ WT = Polµ WT (Homo sapiens, UniProt Q9NP87)
# Polλ Q243R = target: T1, Polλ Q243R
# Polλ W239Y = target: T2, Polλ W239Y
# Polµ WT, sequence (Q9NP87 whole entry): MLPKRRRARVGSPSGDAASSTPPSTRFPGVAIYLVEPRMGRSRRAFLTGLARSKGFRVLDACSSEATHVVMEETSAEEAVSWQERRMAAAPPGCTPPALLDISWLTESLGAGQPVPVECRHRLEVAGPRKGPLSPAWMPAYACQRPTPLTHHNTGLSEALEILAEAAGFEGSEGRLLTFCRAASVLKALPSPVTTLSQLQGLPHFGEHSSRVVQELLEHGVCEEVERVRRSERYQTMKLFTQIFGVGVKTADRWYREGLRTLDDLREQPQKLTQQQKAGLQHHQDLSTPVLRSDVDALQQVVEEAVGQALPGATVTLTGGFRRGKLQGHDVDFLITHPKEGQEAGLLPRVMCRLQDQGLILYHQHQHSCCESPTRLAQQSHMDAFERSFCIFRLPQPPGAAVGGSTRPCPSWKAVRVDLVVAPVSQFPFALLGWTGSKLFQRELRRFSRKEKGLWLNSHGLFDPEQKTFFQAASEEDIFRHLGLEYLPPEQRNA
Binder,binding result (Polµ WT),binding result (Polλ Q243R),binding result (Polλ W239Y)
B1,binds,,
B2,,binds,binds
